From the supplement of paper PMC9170038

Test system: K4 kissing-loop RNA reporter
Assay: apparent KD of K4 kissing-loop reporter; higher = weaker reporter binding
Details: Eterna round: R107
Method: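 RNA-MaP round R107: designed RNA switches with theophylline, tryptophan, arginine or FMN aptamers are transcribed on-chip within common flanks. They are titrated with a labelled K4 kissing-loop RNA reporter in RNA-MaP buffer (100 mM Tris pH 7.5, 80 mM KCl, 4 mM MgCl2), without ligand or with the indicated ligand. Median apparent KD per design.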

[1] = input ligand: theophylline 20 uM
[2] = input ligand: tryptophan 2.4 mM
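Note: bound reporter read as fluorescence of individual clusters on recovered sequencing chips by microscopy, with normalized cluster intensities fitted with a binding model.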

Sequence | apparent KD of K4 kissing-loop reporter (input ligand: FMN 200 uM) [µM] | apparent KD of K4 kissing-loop reporter (input ligand: arginine 13.2 mM) [µM] | apparent KD of K4 kissing-loop reporter (input ligand: none) [µM] | apparent KD of K4 kissing-loop reporter [1] [µM] | apparent KD of K4 kissing-loop reporter [2] [µM]
UGAUUAAGCAGUGAUGUUGCAAGUAAUGAUACCAGUUAAGAAGAGAACCCUUGGCAGCAUAAAGUGCGCUCUGAUGAGUGUGCUU [whbob_SS_Theo_A_w53] | 0.101 | 0.153 | 0.123 | 0.169 | 0.0956
UGAUUGGCGAAAGUAGUGAUGUUACGAAUAUAGGAUAUUAGAGGAAUAAGAAGGAUAAAUGAGAAAUAGGUAAAUUGUUGGUUGG [FMN same state] | 0.101 | 0.0515 | 0.0955 | 0.116 | 0.0945
UGAUUUAACUGAAGGAGCGGCAAUUGAUAAGUAAAUAUAGUGAUGUUAUAUAAGAUAGAGAGCCAGGUAGGUCGCAGAGGUAUUU [ExArgB.N] | 0.173 | 0.141 | 0.154 | 0.153 | 0.141
UGCACGGGCUCGGCCGCCACUCCCGCGGGUCGCAAGGUCCGCUACUGAGUGAUGUUCGGUUGGAGGAGGACCGGGAGCCCGUGCA [#2 Exclusion - Tryptophan B Attempt #27 (HarryS)] | 0.131 | 0.11 | 0.113 | 0.112 | 0.107
UGCCGGGCUGUACGUUACUUAAAUCGCGAUACCAGCGAUACAAUCCGCCCUUGGCAGCGCAGUGAUGUUGCGCGGUCAUUACGGG [theeternabot_exclusion_KL_Theo_A_27] | 0.1 | 0.0905 | 0.0958 | 0.103 | 0.0914
UGCGCUAUGUCCUAAAAUGUCCUCCGGGAUACCAGAGUCUUUUUAUUCCCUUGGCAGCUUGAGUGAUGUUUGAUGCCGUUCUUGU [nnbvmullin] | 0.708 | 0.294 | 0.551 | 0.355 | 0.415
UGCGCUGCCUGAGGAUAUAGAAACGAGUGAUGUUCGUGGAUAAGAGCCAGUGAUGUUGGGUUAUUUCUAGAAGGCAGGCAAAGUA [Exclusion FMN B GF7] | 0.108 | 0.0982 | 0.117 | 0.0934 | 0.104
UGCUGGUCAUAGCGUAGUGUGAGCCGCUCACGAGGACCGGUACGGCCGCCACUCGUUACAAAGCAGUGAUGUUGCAAUAGGCUCU [theeternabot_sameState_KL_Trp_A_24] | 0.332 | 0.407 | 0.339 | 0.417 | 0.156
UGGAGUUGACGAAAAGUCAACUCCAGAGAAGGAGCGGACGAAAGUCCAGGUAGGUCGCUCACUACCAGUGAUGUUGGUACUUGAA | 0.22 | 0.335 | 0.255 | 0.449 | 0.218
UGGAGUUGACGAAAAGUCAACUCCUGAGAUACCAGUGACGAAGGUCACCCUUGGCAGCUCACUGCUAGUGAUGUUGGAAGAUAAA [whbob_SS_Theo_A_w48] | 1.39 | 0.276 | 0.913 | 2.35 | 0.792
UGGAGUUGACGAAAAGUCAACUCCUGGGAAGGAGCGGACGAAAGUCCAGGUAGGUCGCCCACUACCAGUGAUGUUGGUACUUCAA | 0.241 | 0.274 | 0.271 | 0.254 | 0.209
UGGAUAUAGUGAUGUUAUAUAGAGAGGGAUACCAGUUUAGAGAAGAACCCUUGGCAGCCUAAAGAAGUAUCAUUAGAGAAGAAUG [ExTheophyl.An] | 0.37 | 0.229 | 0.253 | 0.324 | 0.241
UGGCGGACGAUCCGGAGUGAUGUUCCGGAUACCAGCAGAAGAGCCUGCCCUUGGCAGCCGUGCGACGCUGGGAGAGUCCGGCGUC [Requered] | 0.104 | 0.088 | 0.104 | 0.107 | 0.0997
UGGGAUGGGCGAGGAUAUGGUGAGGUGGCGGUUGUUAGUGAUGUUGGUGAUGCUAGUGAUGUUUGUCCAGAAGGCGCGGGAUUUU [BDazzled] | 0.218 | 0.104 | 0.171 | 0.179 | 0.168
UGGGAUGUUAAAGGAUAUAGAAAGUGAUAUUAGAAAGUGAGUGAUGUUGAUGUAAGUGAUGAUAUGUUAGAAGGUUAACAAAACG [abcd] | 0.431 | 0.363 | 0.499 | 0.472 | 0.379
UGGGUGUAGUGAUGUUAUAUAGAGAGUGAUACCAGCUUAGAGAGAAGCCCUUGGCAGCAUAGAAGAGUAUCAUUGGAGGAGGAGG [ExTheophyl.Ay] | 0.68 | 0.527 | 0.609 | 0.667 | 0.401
